Key:
[1] = system: (Na,K)ATPase; test: Inhibitory activity on (Na,K)ATPase (86Rb+ tracer, K+-uptake); format: cell-based; details: 10˜20 μg/ml HRF
Experimental: RBL-2H3 cells were cultivated and sensitized according to the same procedures as in Example 6 and then, washed three times with Krebs-Ringer buffer (KRP, 140 mM NaCl, 5 mM KCl, 10 mM Na2HPO4, 1 mM MgSO4, 1.4 mM CaCl2, 2.5 mM glucose, pH 7.4). Subsequently, the cells were incubated at 37° C. for 15 minutes and then, thereto was added 0.1% bovine serum albumin (BSA)-containing KRP buffer comprising 1 mM ouabain. ^86Rb^+([…], NEN) was used as a tracer and the cells were cultivated for 5˜10 minutes. 10˜20 µg/ml HRF was added thereto and K^+-uptake was measured for 5, 10 and 15 minutes, respectively.

[2] = system: (Na,K)ATPase large cytoplasmic loop (CD3); test: Yeast 2-hybrid analysis of HRF binding to (Na,K)ATPase large cytoplasmic loop; parameters: species or system rat; details: CD3 of (Na,K)ATPase α1 and α2 subunits as bait
Excerpt: The total cytoplasmic RNA was extracted from rat skeletal muscle and then, cDNA library for yeast 2-hybrid analysis was constructed by using pJG4-5 vector. CD3 region of (Na,K)ATPase α2 subunit was inserted to LexA DNA binding domain (pEG202 vector) and the inserts were used as bait for screening. Positive clones activating reporter gene were selected and sequence analyzed by sequencing, restriction mapping and BLAST search. Among those clones, one clone had the completely identical sequence with HRF.
CD3 regions of (Na,K)ATPase α1 and 2 subunits were inserted to pEG202 vector and then, the interaction by isoforms was examined. Yeast cells containing LexAop-LEU2 and LexAop-LacZ reporter genes (EGY48/pSH18-34) were transformed with all the constructs as prepared above and then, grown in a selective medium plate.

[3] = system: RBL-2H3 cells; test: Histamine release by HRF (RIA); format: cell-based; details: IgE-sensitized RBL-2H3 cells, 20 μg/ml recombinant HRF
Experimental: The full-length rat HRF sequence amplified by PCR was cloned in pRSET-A vector and then, overexpressed in E. coli. The expressed recombinant protein was purified using His-bound Ni column (Novagen) and used for stimulation of RBL-2H3 cells. RBL-2H3 cells were grown in 24-well plate at 1×10^6 cells, sensitized with rat IgE antibody (0.2 μg/ml, Serotec) for 45˜60 minutes and treated with 20 μg/ml of the recombinant HRF protein and the inhibitors as used above, respectively. The obtained sample was prepared to acylated histamine using RIA-analysis kit (Immunotech, France) and competitively bound to ^125I-acylated histamine and monoclonal antibodies. The sample was analyzed by γ-counter.

[4] = system: COS-7 cells; test: HRF's capability of transiting cell membrane (confocal microscopy, Western blotting); format: cell-based; details: recombinant rat HRF added to COS-7 cell culture solution
Experimental: The full-length rat HRF sequence (Chitpatima, et al., 1988) amplified by PCR (polymerase chain reaction) was cloned in pRSET-A vector and then, overexpressed in E. coli. The expressed recombinant protein was purified by His-bound Ni column (Novagen) and then, added to COS-7 cell culture solution. COS-7 cells were immobilized with 3.7% formaldehyde containing Ca^2+ and Mg^2+ for 10 minutes. Then, the cells were stained with anti-His monoclonal antibodies (1:100) containing 0.1% saponin at room temperature for 1 hour. Subsequently, they were incubated with anti-mouse-FITC (1:100) secondary antibodies for 30 minutes. Anti-bleaching agent solution was added thereto and then, observation was made under laser confocal microscope (Leica TCSNT system).
Further, COS-7 cells cultivated in 100 mm culture plate were treated according to the above method. Then, the cells were divided into cytoplasmic fraction and cell membrane fraction. They were loaded onto 10% SDS-PAGE gel and then, Western blotting was carried out using anti-His monoclonal antibodies.
As shown in the figures, HRF was detected within the cells at 1 minute after its addition.

B1: HRF: recombinant full-length rat HRF overexpressed in E. coli; protein consisting of 172 amino acids (protein)
chain: MIIYRDLISHDELFSDIYKIREIADGLCLEVEGKMVSRTEGAIDDSLIGGNASAEGPEGEGTESTVVTGVDIVMNHHLQETSFTKEAYKKYIKDYMKSLKGKLEEQKPERVKPFMTGAAEQIKHILANFNNYQFFIGENMNPDGMVALLDYREDGVTPFMIFFKDGLEMEKC
modifications: left off: small tags and cut ends
notes: recombinant full-length rat HRF overexpressed in E. coli; protein consisting of 172 amino acids
decrease of (Na,K)ATPase activity ([1]; K+-uptake measured for 5 minutes): 10.8%
decrease of (Na,K)ATPase activity ([1]; K+-uptake measured for 10 minutes): 40.4%
decrease of (Na,K)ATPase activity ([1]; K+-uptake measured for 15 minutes): 50.7%
HRF binding to (Na,K)ATPase CD3 in yeast 2-hybrid [2]: HRF receptor corresponds to large cytoplasmic loop (CD3) of (Na,K)ATPase
histamine release [3]: histamine was released by HRF
time after addition at which HRF was detected within the cells [4]: 1 min
